{
  "source": "paper PMC10392684",
  "about": "“Amyloid-like Hfq interaction with single-stranded DNA: involvement in recombination and replication in Escherichia coli”",
  "binders": {"B1": {"name": "dA59 (ssDNA)", "DNA": "AAAAAAAAAAAAAAAAAAAAAAAAAAAAAAAAAAAAAAAAAAAAAAAAAAAAAAAAAAA"}, "B2": {"name": "dA59 (spectroscopy) (ssDNA)", "DNA": "B1 DNA"}},
  "key": {"Hfq": {"biological_target": "Hfq (Escherichia coli, UniProt P0A6X3 1-102)", "sequence (P0A6X3 whole entry)": "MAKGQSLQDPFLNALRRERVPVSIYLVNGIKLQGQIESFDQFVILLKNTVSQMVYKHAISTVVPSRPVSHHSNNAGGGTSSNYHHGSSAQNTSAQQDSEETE", "experiment": "fluorescence anisotropy; Anisotropy: buffer not given in material (as Geinguenaud 2011); pH ~5 stated for DNA complex formation; microscopy: Hfq stock in 50 mM Tris-HCl pH 7.5, 50 mM NH4Cl, 10% glycerol, 1 mM EDTA, exchanged to TE (10 mM Tris-HCl pH 8, 1 mM EDTA); TEM: 10 mM Tris-HCl, 1 mM EDTA, room temperature, 10 min", "conditions": "protein: recombinant; chain copies: 6; label: 5'-fluorescein"}, "Hfq-CTR peptide": {"biological_target": "T1, Hfq-CTR peptide (Escherichia coli, UniProt P0A6X3 64-102)", "T1 chain": "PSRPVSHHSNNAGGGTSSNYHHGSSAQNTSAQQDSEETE", "experiment": "FTIR and SRCD; pH ~5; Anisotropy: buffer not given in material (as Geinguenaud 2011); pH ~5 stated for DNA complex formation; microscopy: Hfq stock in 50 mM Tris-HCl pH 7.5, 50 mM NH4Cl, 10% glycerol, 1 mM EDTA, exchanged to TE (10 mM Tris-HCl pH 8, 1 mM EDTA); TEM: 10 mM Tris-HCl, 1 mM EDTA, room temperature, 10 min"}},
  "data": [
    {"binder": "AAAAAAAAAAAAAAAAAAAA (ssDNA)", "note": "[dA20]", "values": [
      {"measurement": "Kd", "setting": "Hfq", "result": "183 ± 8", "unit": "nM"}
    ]},
    {"binder": "B1", "values": [
      {"measurement": "Kd", "setting": "Hfq", "result": "166 ± 16", "unit": "nM"}
    ]},
    {"binder": "B2", "values": [
      {"measurement": "binding result", "setting": "Hfq-CTR peptide", "result": "binds"}
    ]},
    {"binder": "AAAAAAA (ssDNA)", "note": "[dA7]", "values": [
      {"measurement": "Kd", "setting": "Hfq", "result": "3500 ± 200", "unit": "nM"}
    ]}
  ]
}
